Test: label from the status in PepcDB records

Sequence	protein production
MAAGKRDYYEVLGISKNASSQDIKRAFRKLAMQYHPDRHKAENETTQKQNEEKFKEVNEAYEVLSDEEKRKLYDQFGHEGLNASGFHEAGFNPFDIFNSVFGEGFSFGMDGDSPFDFIFNRSKKRQQQIVVPYNLDIALVIEINFFEMTNGCNKTIKYERKVSCHSCNGFGAEGGESGLDLCKDCNGNGFVIKNQRSIFGTIQSQVLCSTCNGQGKQIKVKCKTCRSNKYTVTNQIKEINIPAGMYSGEALVDESGGNEFKGHYGKLIIQVNVLASKIFKRSDNNVIANVLVDPMVAIVGGVIELPTLEGIKEFNIRPGTKSGEQIVIPNGGIKFSKSFKRKAGDLIIIISYARPCEYTNLELKKLREFIKPNQEVKQYLNTLKNEYKT	failed
MVRNMLIESVLFLAAGLFMLSYGSDWFVLGASRVAKQFNISSFVIGATIVAFGTSLPEIVTSAYAASTGSVELAVGNALGSCIANIGLVLGLSLIISTVFIKNRSVLKNGYLYIIYTIIFTAIGYNGFSFFDGIFLLFLLLVYVVYTIKSGEMDDEEHEKSITFKKAIIYLLIGLLFVILGSSFFVDGAKGLASAFGVSEKIIGFTIVAFGTSLPELSVSFAAARQKLGGIVIGNVIGSNIANMFGALAIASIIHEIPAVKFELSVNILMVLLLIAMMSKEKIKAVLNLNSTKEYLSKITKADGLILILIYLLFVLGLTGIF	failed
MAPTLAGPNVAGDCFPGASGCIVLPMSGSLSLHIAAFLALLPAAFTPLRQTPGRDGLFWGTLGVAIIGALVVSIVPSLRQGMWSTSFSSALWVSIAATLLLFSELCFRHQAAWRLTPVLMPYLIALGAMATIWEGAEGAPLADHAPAFWTVLHIVIAVLTYGMLTLGAVAALAGFLQERALKARRPTSLTRRLPAAAEADRLSWILLYTSEWVLGAGLLTGMAVEYLETGAILQPDHKSMLSSLAFLVIGGLILARSRWGVRGRVGARVVLLAYLLLTLAFPGVKFVSDVLL	failed
MSAPFHSALLDALNQRVVIGDGAMGTMLQAADLTLDDFLGLEGCNEILNDTRPDVLKDIHRAYFEAGADAVETNTFGCNLPNLADYDISDRIRELAEKGTRLARDVADEMGPGRDGMGRFVLGSMGPGTKLPTLGHAPFAILRDAYAEAAMGMIDGGADAILVETCQDLLQVKAAILGSQRAMETLGSRLPIITHVTVETTGTMLLGSEIGAALTALEPLGIDMIGLNCATGPAEMSEHLRHLSKYSSLPVSVMPNAGLPQLGPNGAEYPLTAEELAEALSGFVTEFGLGLVGGCCGTTPEHIRQVAEAVRLVEKAERNPVHESGTSSLYTAVPFQQDASILMIGERTNTNGSKAF	failed
MKRKKIKNQLLVLTSILVLLSLEVAPVVTLAAELPSSSLQTALSSETTITSEEKVTETTETTVATSTTSTSSSSSESSSSTDTTTESTSQSTTETTTTNTSSETKKEPTEPTVSSEITQPVEQSQPPQVPVTKQEPEEPIQVPEANNNFVEENQAVSLNPSLKVDEIASSNLKGYELPLLSSFGEKKRAVVVAEALRHVGKTKKEFNLTEQALTSSFLAQKIYQQLFKIDIGSTPQEQMTFGKVRSIEEAEPGDLIFWQTAEGKTLQNGVYLGQGKYLIAAAESDSKEKPEVIAQLENIYTAKQQPDSKEEKRLVVTNPFKEFILTEYGKEVLATYGASFEMQKSEQTTAFIKKIGETARELGEKYDVFASVMIAQAILESGSGESQLAKEPYYNLFGVKGSFQGNSVSFSTKEADQRGQLYTISAGFRDYGGYNDSLQDYVQLLRQGIDGNQDFYKPAWRSEAKNYLQATRFLTGKYATDKQYDNKLNSLIAVYNLTQFDLPKTVDGLIIQSKNKLSEAEQQQMHFPVYDGINYNRSGSYPVGQCTWYVYNRFKQLGTSVDEFMGNGSDWGRKGRALGYQVSSLPKAGRAISFQPGVAGADNQYGHVAFVEAVTSDGIIISESNVINDQTISYRVLPNVIAYSSGVTYIGA	failed
MEQLIFKQTYKKIEPFILLLNGLLLAAAISIVHIVGMHAYHLFEAASSNVPLITLAFGISAVLSSVAIWLTSRFTLPIFRLILSSVIMGIGISASYYVSMLGWNIDIYKKDYTSFLILFSVLIAMSGSGLAFLLAYKLKESERHRISLKLAFAVMMTLSIMGMHYTALISTNITDKFVSQYQAEHDLLLFTIILVTCLVLVASFIVAVLEQRLNQRNLELRKANKELANLSIQDNLTKLPNRLYLVDYAEVLLSDHRYKDQKIAFLYIDLDRFKSVNDAFGHHIGDQLLIQMANRLHWQLNEKCKLLRIGGDEFLLIAENTDTEEAMQLAEKVLHLIQDSYQISGKEINISASLGIALFPEHGQNVQDLLMNADAAMLMSKEQGRNTYTVFSYSTHQQETRSQSKLINDLYKAVEEKQFVLYYQPKFNTNLEICGVEALIRWNHPSLGMLTPHMFIGGAEKTGLIIPMGYWALEQACQQIQEWERSNTQFYPIAVNLSALQFENKKLFSTLEGLLKKYQIQPHHLIIEITESTAMRHIDLSIRACERLRDMGIRVAIDDFGTGHSSFLYLKDLPVDELKIDRGFIVDLKPGSKEEVILESIIHLAKKLGLTVTAEGVETQQQVEILTRLGCQQFQGYLLGMPVNVGQLIQSQGAHFV	failed
MGCFASRPNDTGGNRRKPTSIGDVSVYVPGLRIPKPVEFSQSLGDQLPKTLVERLTALRTRIVVMANQEGPTITRTRRKTQHGGSTLADLHHALEDYIPVLLGLTKDGSHLQFKVQFNWVNQEDEEEETAMSNVWYEILSVLHLMAMLQMSQANLLLLPRGSSDGYHPKISEENRRASIDIFLKAAGYLDCAVKHVLPHFSTEQRRSLPIDLAEGALRALCLQALGQGVDIQLGMAIDSAKATLAVKRRLSCEMVKYWQQAQDNLMNLPLANGWGEKHMLFVKWKYVEAKAAAYYYHGLILDEGNTEKSHGMAVAALQAADECLKESKKASEAFNTSSPTSRTPSLFGTMKYLSEKIPKETSSKVRINRDLYSYEKIMETAPTLPDFALALKPDEYQLPSVDASWSEASLRTKNTSNHI	not failed
MKKVKIFSIVLPLIYTSFMLYVTYKVYNGLRYRSLDLGIFTQSLYSLSEGKLFYNTVEFQLYEVHTHFGVHFQPILFLLTPLFLIKRDAYTLIIIQTLALGTSVYLAYKLAVKELGEKKGFALAILYSCNSSLISINVFEFHPVSLAVPLFLLAYKFLREESPLFYVISTLILLTKEDAFLGVLSITAWKILKEGLSVETLKKNKKIILFTILTLLYGIFTIKVVIPKFGGEYIYSNLYMEPRLDRRKLTYFLLFNLTFALLPLLNFFAILSLLPPWLECLLASRESQTMFGFHYPYMLVPLSFVISLDVAKKLDWKILRNLAILGVISSLITLPITNHLPKEQNPLVYPTVITPIPGKEASWEAIKITRELEGPIYTQPEFYPALATRLDVYVYPKNVKPKIILVNLNTYYGRRALERIKAFRVNLSEYKKVFEKDGVLIMVRKD	failed
MGSTQYWDLKSGVCTRIFGGHQGTITCMDLCKNRLVSGGRDCQVKVWDVDTGKCLKTFRHKDPILATRINDTYIVSSCERGLVKVWHIAMAQLVKTLSGHEGAVKCLFFDQWHLLSGSTDGLVMAWSMVGKYERCLMAFKHPKEVLDVSLLFLRVISACADGKIRIYNFFNGNCMKVIKANGRGDPVLSFFIQGNRMVVNTESNVLMFQFEHIKWQYAVEKTKQKKNKEKEEEKEENSLMEILSKCNIQVHSPRESVSSKQTVIQELLPGKPPKSRVLLKPAKFSSAVLIEELQSQGKSKSPRRDADDVEKAQKQGQLETPGKLPSHPKKKSWKIPMSPDQFLLTVSALQHARNSGEFAYPCRPQTEITDVWGPSISYPRKVLNFKGKSIQRAVDRLRLSNPPIDVKRTSIPLEIQKLQPNLKISLHSPRAQSTIPQPMIIRSRFSGSLKGGDQVTSSIERAVCSTGPLTSMQVIKPNRMLAPQVGTATLSLKKERPRIYTALDPFRVNAEFVLLTVKEEKEHQEAKMKEYQARESTGVVDPGKASKAAWIRKIKGLPIDNFTKQGKTAAPELGQNVFI	failed
AIANDDRATAFNALKNKTVCVQGDGNSRQFYHALVEILSNHSSAIPVNKNGNDFCNAPFAQCPQDTYYFDLVDKSDNLSVKLYWRWAPEFSDIECPMKVPSGFTPGSNYSFPSGPDTLSCDINIMDAGQWELFEKDANVTTAGYSQGVSNLSKCFSSDKSAKYFWIAAYALTPEQLQIHLPYNNTDVERINEVATQGLNSTACVLNGYDVTVNAFNDTKEATTDGIHYLGWINEQVVHLFFNAVTNSSAPTVPSSNVSVTSPNVQLGQVPNLNPSTTNSFLPVQTIVTVPSSSATSASSGLNFGGSSQGGGSGIPQL	failed
QYMSYDRNAFGNQVMGQFGNASGSVTSNKIFGFRSDILLQLLNMKISKDHQELNQNQVIQLVPTYLQQLYNEMNNGDPTMYKDLLNLHSNIVHPSGMYMNPLLYANQNPNAAGYNQGTGGVPPMAGGSVAHGPPAAPAP	failed
MAAGKTHDKITVIMTPFIASFFLFINMIFLEDLGSSLAFTILGVSIYMFGGYMFSGDLDIKSREFRRWGYLKFIWIPYQKLFEHRSVFTHGFILGPIIRILYVSIIPITISSLLYSFSIINISTPEMLKLVFNFILKNKILFGNMALALFLGSGLHTITDMIYSYFKRKFSYKKRKSSKKYSRSKRPSRRAA	failed
HERVGNLNQPIEVTALYSFEGQQPGDLNFQAGDRITVISKTDSHFDWWEGKLRGQTGIFPANYVTMN	not failed
MLRQGAKHTACTGRRNDDDRTPKEQSMKIVVIGGTGLIGSNVVNRLRRDGHETVAASPGTGVNTITGEGLAQALDGAQVVVDVANSPSFEDQAVMAFFETSGRTLLAAEAAAGVTHHLALSVVGTDRLADSGYFRAKVAQEALIKASKVPYTILRATQFFEFIESIVNAGADGDTVRLSPALIQPIAADDVSAALADLAVGMPLNGTVEVAGPDRLPLDELARKFLAARGDRRQVVADVHARYFGSELDDRSLVAGDNPRVGSTRLMNWLSRSPAPQ	failed
MLSSGITKAKGMAVVSEGSVPMDQSVGHLPASLLSLVSDPVPKEKVLLPKALRQTLLEKGCHNVRAHGFDAISTQASACSSVAQAGARHTQPSSRARAQVRGHTGDPLASTVSPDLTPDVYVLRVKLEETGELFRVANCRNDMTVRELKEELDLMVGIPFNLQRLHFLDRGILMDDATLKFYDVIPGALISLCIWHYDGWTELVLAAVEGDPSKMSCLGISEDTFYRTANSQHFKGEQWRQWTAQRAFVALYISAHRGHVDAVQYLLGLGANCLAKSPLGRTPLHVVAAMGRTDCVQPLLEHGASIHDRDLKSDTPITIARRLKRGHLEHKMFLLYWMVKSGSRDPDLVGRKALEKSSPGMATRRSTILIS	failed
MSVTVRVPAKVNVQLAVGAARPDGFHDLANVFLAVSLYDEVTATPAADGLRVTCEGPDAGQVPLDRTNLAARAAEALAARYGRAPDVHLHIAKDIPVAGGMAGGSADGAGALLACDALWGTGASREELLEICAGLGSDVPFSLVGGAALGTGRGERLAELE	failed
MAAPSGVPPMRVLEELGINLSPTGEVTETEAVAAEGAYYLEQVTITETSEDECEYEEIPDDNFSIPEGEEDLAKAIHMVDEQATDTHILEQQTILPSRHVMQEAIEDFLCNFLIKMGMTRTLDCFQAEWYELIQKTGSDLRTLGNVPDVYSQVMLLETENKNLKKDLKHFKQAAEKAKEDLLKTQKERDFHRMHHKRILQEKNKLIADLKGLKLHYASYEPTIRVLHEKHHALLKEKMLTSLERDRAVGKISGLQATLKNIDIGHIQVPVIKGSYETASILRELGDKAGHTYEKENSSEGPTQKNLREAREENGYKTKMKSERKDSEFPVDMQPDPNLTACTESLPTAKFDYRLNNIFRLHELPVSCICTHSVRDTMILCSEVRMWAGVGMDSGSISITPSGISRWISGCCDHPNRSWLLTSNGNRTLSLWELPEGKCTLTLQSLCQHHHFIWSCSWHICSRCAAQSSYRSTPKVWFLSVERCRYTLYGHTDSVNSIEFFPFSNTLLTASADKTLSVWDARTSHCQQSLYGHIRNIHIVKFTTPRLRGHILASCDSRGVIKLWDFRKLIPIVSIDVGPSPGNEVNFDPSGRVLAQASANGIIHLLDLKSGQIHKLVGHESEVHTVIFSHRAENLYSGGSDGTIRLWL	failed

— a protein production outcome set (Wang et al. 2014)
